# Publication PMC11602160
# Columns and labels:
# [1] = target: N_(IDR1-core), N variant with IDR1, RBD and DD in which the 67-residue linker is replaced by a 12-residue GSA-linker (SARS-CoV-2)
# [2] = target: N_(IDR1-core), N variant with IDR1, RBD and DD in which the 67-residue linker is replaced by a 12-residue GSA-linker (SARS-CoV-2); assay: ITC; iTC200, 10°C; […]; 20 mM Tris-HCl pH 8.0, 150 mM NaCl, 5% glycerol; […]
substance,measurement,setting,value
"N_(IDR1-core), N variant with IDR1, RBD and DD in which the 67-residue linker is replaced by a 12-residue GSA-linker (domain or fragment)",stoichiometry N,[1],2
"UPF2S, UPF2 variant comprising the MIF4G3 and the U1BD domains (from UniProt Q9HAU5 761-1227) (domain or fragment)",Kd,[2],2.9 µM
